Test results as given in patent US12709641B2, “Tau binding compounds” (VOYAGER THERAPEUTICS, INC., dated 2026).
No end group written: not given here.

T1: peptides corresponding with residues 413-430 of human tau (human, also: biotin, position not given here, phosphorylated residues, sites not given here)
T1 peptide: STGSIDMVDSPQLATLAD

B1: V00018 (antibody, V domains shown)
VH: QVQLQQPGADLVRPGSSVKLSCKASGYTFTRSWMHWVKQRPIEGLEWIGNIDPSDSEAHYNQKFKDKATLTVDKFSNTAYMQLSSLTSEDSAVYYCARWDDFYVAYWGQGTLVTVSA
VL: DIVLTQSPASLAVSLGQRATISCRASKSVSTSGYSYIHWYQQKPGQPPKLLIYLASNLESGVPARFSGSGSGTDFTLNIHPVEEEDAATYYCQHSRELPWTFGGGTKLEIK
B2: V00019 (antibody, V domains shown)
VH: QVQLQQPGAALVRPGSSVKLSCKASGYTFTSSWMHWVKQRPIQGLEWIGNIDPSDGETHYNQKFKDKATLTVDKSSNTAYMQLSSLTSEDSAVYYCARWDDYYVAYWGQGTLVTVSA
VL: DIVLTQSPASLAVSLGQRATISCRASKSVSTSGYSYMHWYQQKPGQPPKLLIYLASNLESGVPARFSGSGSGTDFTLNIHPVEEEDAATYYCLHSRELPWTFGGGTKLEIK
B3: V0020 (antibody, V domains shown)
VH: QVQLQQPGTDLVKPGASVKLSCKASGYTFTSYWMHWLKQRPGQGLEWIGNINPNNSDANYNEKFKSKATLTVDKSSSAAYMQLISLTSEDSAVYYCARANYYGGSQFAYWGQGTLVTVSA
VL: DVVVTQTPLSLPVSLGDQASISCRSSQSLVHSNGKTYLHWYLQKPGQSPNLLIYKVSNRFSGVPDRFSGSGSGTDFTLKISRVEAEDLGVYFCSQSTHVPFTFGSGTKLEIK
B4: V0021 (antibody, V domains shown)
VH: QVQLQQPGIELVKTGASVKLSCKASGYTFTSNWMHWLKQRPGQGLEWIGNINPNNSETNYNEKFRKKATLTVDKSSSAAYMQLISLTSEDSAVYYCARANYYGGSQFAYWGQGTLVTVSA
VL: DVVMTQTPLSLCVSLGDQASISCRSSQSLVHSNGKTYLHWYLQKPGQSPNLLIYKVSNRFSGVPDRFSGSGSGTDFTLKISRVEAEDLGVYFCSQSTHVPFTFGSGTKLEIK
B5: V00016 (antibody, V domains shown)
VH: EVQLQQSGAELVKPGASVKLSCTASGFNIKDYYIHWVKQRTEQGLEWIGRIDPEDGETKYAPKFQGKATIAADTSSNTAYLHLNSLTSEDTAVYYCAREFSYAMDYWGQGTSVTVSS
VL: NIMMTQSPSSLAVSAGEKVTMSCKSSQSVLYSSNQKNYLAWYQQKPGQSPKLLIYWASTRESGVPDRFTGSGSGTDFTLTISSVQAEDLAVYYCHQYLSSRTFGGGTKLEIK
B6: V0004 (antibody, V domains shown)
VH: QVQLQQPGAELVKPGASVKLSCKASDYTFTNYWMHWVKQRPGRGLEWIGRIDPNSGGTRYNEKFKNKATLTVDKPSSTAYMHLSSLTSEDSAVYYCAGDFDVWGTGTTVTVSS
VL: DIQMTQSPASLSASVGETVTITCRASGNIHNYLAWYQQRQGKSPQLLVYNAKTLPDGVPSRFSGSGSGTQYSLKINSLQPEDFGSYCCQHFWSTPLTFGAGTKLELK
B7: V0035 (antibody, V domains shown)
VH: EAQLQQSGAELVRPGSSVKMSCKTSGYTFTSYGINWVKQRPGQGLEWIGYIYIRNGNTAYNEKFKGKATVTSDTSSSTVYMQLSSLTSEDSAIYFCAGTGTSFTYWGQGTLVTVSA
VL: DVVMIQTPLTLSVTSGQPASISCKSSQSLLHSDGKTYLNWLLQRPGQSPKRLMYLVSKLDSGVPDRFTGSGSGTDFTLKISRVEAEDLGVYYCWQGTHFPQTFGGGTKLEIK
B8: V0034 (antibody, V domains shown)
VH: EVQLQQSGAELVRPGSSVKMSCKTSGYTFTSYGINWVKQRPGQGLEWVGYIYIRDGNTAYNEKFKGKATVTSDTSSSTVYMQLSSLTSEDSAIYFCAGTGTSFAYWGQGTLVTVSA
VL: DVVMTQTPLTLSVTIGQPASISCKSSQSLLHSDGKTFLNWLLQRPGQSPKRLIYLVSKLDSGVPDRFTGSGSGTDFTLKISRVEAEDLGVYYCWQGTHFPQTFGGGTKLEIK
B9: V0009 (antibody, V domains shown)
VH: EVQLVESGGALVQPGGSLSLSCAASGFTFTDYYMSWVRQPPGKALEWLALIRNKAKGFTTEYSASVKGRFTISRDNSQSILLFQMNDLRADDSATYYCVRDINYWGQGTTLTVSS
VL: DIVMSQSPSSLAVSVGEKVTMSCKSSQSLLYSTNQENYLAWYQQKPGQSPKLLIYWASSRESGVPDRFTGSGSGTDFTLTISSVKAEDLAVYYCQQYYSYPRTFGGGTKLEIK
B10: V0026 (antibody, V domains shown)
VH: QVQLQQSGPELVKPGASVKISCKASGYSFTDYYINWVKQRPGQGLEWIGWIFPGSDSTYYNEKFKGKATLTVDKSSSTASMLLSSLTSEDSAVYFCARPTVVARDYAMDYWGQGTSVTVSS
VL: DVLMTQTPLSLPVSLGDQASISCRSSQSIVYSNGNTYLEWYLQKPGQSPKLLIYKVSNRFSGVPDRFSGSGSGTDFTLKISRVEAEDLGVYYCFQGSHVPYTFGGGTKLEIK
B11: V0024 (antibody, V domains shown)
VH: QVQLQQPGTELVKPGASVKLSCKASGYTFTRFWMHWVKQRPGQGLEWIGNINPNNGGTDNNERFKSKATLTVDRSSSTAYMQLSSLTSEDSAVYYCARGTGTGAMDYWGQGTSVTVSS
VL: DVVMTQTPLSLPVSLGDQASISCRSSQSLVHSNGNTHLYWYLQKPGQSPKLLIYRVSSRFSGVPDRFSGSGSGTDFTLKISRVEAEDLGVYFCFQGTHVPRTFGGGTKLEIK
B12: V0031 (antibody, V domains shown)
VH: QVQLQQPGTELVKPGASVKLSCKASGYTFTSYWMHWVKQRPGQGLEWIGNIYPSNGGTYYNEKFKSKATLTVDKSSSTAYMQLSSLTSEDSAVYYCARSSVVGRDYAMDYWGQGTSVTVSS
VL: DVLMTQTPLSLPVSLGDQASIACRSSQSIVHSNGNTYLEWYLQKPGQSPELLIYKVSNRFSGVPDRFSGSGSGTDFTLKISRVEAEDLGVYYCFQGSHVPYTFGGGTKLEIK
B13: V0027 (antibody, V domains shown)
VH: QVQLQQSGPELVKPGASVKISCKASGYTFTEYYLNWMKQRPGQGLEWIGWIFPGRGSTNYNEKFKGKATLTVDKSSSTAYMLLSSLTSEDSAVYFCARPTIVARDYAMDYWGQGTSVTVSS
VL: DVLMTQTPLSLPVSLGDQASISCRSSQSIVHRNGNTYLEWYLQKPGQSPKLLIYKVSNRFSGVPDRFSGSGSGTDFTLKISRVEAEDLGVYYCFQGSHVPFTFGSGTKLEIK
B14: V0032 (antibody, V domains shown)
VH: QVQLKQSGAELVRPGASVKLSCKTSGYTFTDYYIKWVKQRPGQGLEWIARIYPGSGNTYYNEKFKGKATLTAEKSSSTAYMQLSSLTSEDSAVYFCARPAYYSKDYAMEYWGQGTSVTVSS
VL: DVLMTQTPLSLPVSLGDQASISCRSSQSIVYTNGNTYLEWYLQKPGQSPKLLIYKVSNRFSGVPDRFSGSGSGTDFTLKISRVEAEDLGVYYCFQGSHVPYTFGGGTKLEIK
B15: V0033 (antibody, V domains shown)
VH: EVQLQQSGAELVRPGSSVKMSCKTSGYTFTSYGINWVKQRPGQGLEWIGYIYIGNGHTEYNEKFEGKATLTSDTSSSTAYMQLSSLTSEDSAIYFCAGTGTLFDYWGQGTTLTVSS
VL: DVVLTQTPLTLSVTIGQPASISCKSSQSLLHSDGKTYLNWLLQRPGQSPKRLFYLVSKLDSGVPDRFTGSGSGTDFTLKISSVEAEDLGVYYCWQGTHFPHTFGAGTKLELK
B16: V0058 (antibody, V domains shown)
VH: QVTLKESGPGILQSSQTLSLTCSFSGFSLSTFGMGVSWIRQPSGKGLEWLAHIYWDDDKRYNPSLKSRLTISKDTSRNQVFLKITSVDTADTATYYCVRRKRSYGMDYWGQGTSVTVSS
VL: DIVMTQSPSSLSVSAGEKVTMSCKSSQSLLSSGNQKNYLAWYQQKPGQPPKLLIYGASTRESGVPDRFTGSGSGTDFTLTISSVQAEDLAVYYCQNDHSHPYTFGGGTKLEIK
B17: V0057 (antibody, V domains shown)
VH: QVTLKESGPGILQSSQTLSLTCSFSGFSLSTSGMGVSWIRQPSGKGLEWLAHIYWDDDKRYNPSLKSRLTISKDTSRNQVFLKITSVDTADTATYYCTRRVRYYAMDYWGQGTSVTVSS
VL: DIVMTQSPSSLSVSAGEKVTMSCKSSQSLLNSGNQKNYLAWYQQKPGQPPKLLIYGASTRESGVPDRFTGSGSGTDFTLTISSVQAEDLAVYYCQNDHSHPYTFGGGTKLEIK
B18: V0054 (antibody, V domains shown)
VH: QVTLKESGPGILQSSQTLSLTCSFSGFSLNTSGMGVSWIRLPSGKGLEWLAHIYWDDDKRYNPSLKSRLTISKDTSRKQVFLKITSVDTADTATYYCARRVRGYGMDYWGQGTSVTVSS
VL: DIVMTQSPSSLSVSAGEKVTMSCKSSQSLLNSGNQKNYLAWYQQKPGQPPKLLIYGTSTRESGVPDRFTGSGSGTDFTLTISSVQAEDLAVYYCQNDHSHPYTFGGGTKLEIK
B19: V0050 (antibody, V domains shown)
VH: EVQLQQSGPELVKPGASVKIPCRASGYTFTDYNMDWVKQSHGKTLEWIGDINPNNGGTIYNQKFKGKATLTVDKSSSTAYMELRSLTSEDTAVYYCARGRGMGYYALDYWGQGTSVTVSS
VL: DIQMTQSPASLSASVGETVTFTCGASENVYGALNWYQRKQGKSPQLLIYGATNLADGMSSRFSGSGSGRQYSLKISSLHPDDVATYYCQNVLTIPWTFGGGAKLEIK

Legend:
[1] = target: T2, enriched paired helical filament tau protein (ePHF) (human, phosphorylated residues of pathological tau, sites not stated); test: direct ELISA
Method: (§1) Variable domain nucleic acid sequences from antibodies obtained from immunizations described above were used to prepare recombinant mouse IgG antibodies. These candidate antibodies were analyzed for binding to ePHF and specificity for ePHF over wild type tau by direct ELISA.
(§2) For direct ePHF and wildtype tau ELISA, plates were first coated with ePHF or wild type tau. Antigen solutions were prepared in PBS and 50 μL were pipetted into each well. Plates were covered and incubated for one hour at 37° C. or overnight at 4° C. Plates were then washed and blocked by addition of 150 μl of blocking buffer to each well and incubated one hour at room temperature. Plates were then washed before addition of serially diluted candidate antibody samples prepared in blocking buffer. Detection of candidate antibody binding was carried out by washing plates and adding a solution of enzyme-labeled secondary antibody in blocking buffer to each well. Secondary antibody binding was detected by addition of substrate and spectrophotometric analysis of resulting reaction product.

[2] = target: wild type tau (Homo sapiens (Human), UniProt P10636-8); test: direct ELISA
Method: as §1, §2

[3] = target: iPHF (Homo sapiens (Human), UniProt P10636-8); test: Octet, antibody on biosensor tips
Method: Anti-human tau antibodies were assessed for affinity for iPHF by Octet (ForteBio, Menlo Park, CA) analysis. Recombinant mouse IgG antibodies were prepared with clone-specific variable domain pairs selected from those presented in Table 3 and mouse IgG1 constant domains. Candidate antibodies were immobilized on biosensor tips (ForteBio) in kinetic buffer (ForteBio). Biosensor tips were then washed before introduction of a solution of iPHF in kinetic buffer for analysis of association and dissociation with candidate antibodies. Affinity measurements (K_D) were obtained using Data Analysis HT version 11.1 and corrected for background and high-frequency noise.

[4] = target: T2, enriched paired helical filament tau …; test: follow up analysis, method not stated
[5] = target: T1, peptides corresponding with residues …; test: Pepscan biotinylated peptides, BLI or colorimetric detection
Method: Recombinant mouse IgG antibodies were prepared with clone-specific variable domain pairs selected from those presented in Table 3 and mouse IgG1 constant domains. Epitope analysis was carried out with different anti-tau antibodies using a peptide scanning approach (e.g., see Verelst, J. et al. Front Mol Biosci. 2020 Mar. 31; 7:48). Libraries of overlapping synthetic biotinylated peptides corresponding to phosphorylated human tau (Pepscan, Lelystad, NL) were obtained and used to coat assay plate wells, each with individual library members. Recombinant mouse IgG antibodies were prepared with clone-specific variable domain pairs selected from those presented in Table 3 and mouse IgG1 constant domains. Antibody binding to peptides in each well was analyzed using colorimetric detection of peptide-antibody complexes with labeled secondary antibody or by associating biotinylated peptides with streptavidin coated biosensors in assay wells and assessing antibody binding by bio-layer interferometry (BLI)-based detection.

| Binder | EC50 [1] | EC50 [2] | Kd [3] | selectivity for ePHF over wild type tau [4] | Kd [5] |
| --- | --- | --- | --- | --- | --- |
| B1 | 0.718 nM | 0.238 nM | – | – | – |
| B2 | – | 0.285 nM | – | – | – |
| B3 | 0.351 nM | – | 32.7 nM | – | – |
| B4 | 0.571 nM | – | 15.1 nM | – | – |
| B5 | – | 0.141 nM | – | – | – |
| B6 | 0.083 nM | – | 20 nM | 100 fold | – |
| B7 | 0.315 nM | 0.169 nM | – | – | – |
| B8 | 0.351 nM | 0.14 nM | – | – | – |
| B9 | 0.038 nM | – | 0.2 nM | > 100 fold | – |
| B10 | 5.61 nM | – | 0.7 nM | – | – |
| B11 | – | – | – | – | 0.225 nM |
| B12 | 8.8 nM | – | 57.7 nM | – | – |
| B13 | 3.51 nM | – | 10.5 nM | – | – |
| B14 | 14.3 nM | – | 17.5 nM | – | – |
| B15 | – | 0.342 nM | – | – | – |
| B16 | 2.45 nM | – | 1 nM | – | – |
| B17 | – | – | 17.4 nM | – | – |
| B18 | – | – | 105 nM | – | – |
| B19 | 17.9 nM | – | 0.4 nM | – | – |
